T1: PDK1-L155E (Homo sapiens, UniProt O15530, L155E)
T1 construct: made in house; host or cells: human embryonic kidney 293 cells
T1 sequence (O15530 1-556 L155E): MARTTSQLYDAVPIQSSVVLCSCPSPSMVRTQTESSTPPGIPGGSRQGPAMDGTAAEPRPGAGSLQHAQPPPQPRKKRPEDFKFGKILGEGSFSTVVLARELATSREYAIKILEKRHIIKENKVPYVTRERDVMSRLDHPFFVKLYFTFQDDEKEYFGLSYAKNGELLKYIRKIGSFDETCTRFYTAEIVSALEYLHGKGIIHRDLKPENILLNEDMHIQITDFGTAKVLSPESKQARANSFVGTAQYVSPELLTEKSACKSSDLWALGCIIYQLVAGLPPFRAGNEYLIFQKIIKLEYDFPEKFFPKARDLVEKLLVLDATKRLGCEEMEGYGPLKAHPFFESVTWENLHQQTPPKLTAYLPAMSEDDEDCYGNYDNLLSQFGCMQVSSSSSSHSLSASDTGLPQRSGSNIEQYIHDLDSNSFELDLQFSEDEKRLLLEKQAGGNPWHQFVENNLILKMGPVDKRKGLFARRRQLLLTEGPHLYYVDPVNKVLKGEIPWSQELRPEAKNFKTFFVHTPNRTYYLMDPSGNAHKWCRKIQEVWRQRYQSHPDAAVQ

T2: PDK1-wt (Homo sapiens, UniProt O15530)
T2 construct: made in house; host or cells: human embryonic kidney 293 cells
T2 sequence (O15530 1-556): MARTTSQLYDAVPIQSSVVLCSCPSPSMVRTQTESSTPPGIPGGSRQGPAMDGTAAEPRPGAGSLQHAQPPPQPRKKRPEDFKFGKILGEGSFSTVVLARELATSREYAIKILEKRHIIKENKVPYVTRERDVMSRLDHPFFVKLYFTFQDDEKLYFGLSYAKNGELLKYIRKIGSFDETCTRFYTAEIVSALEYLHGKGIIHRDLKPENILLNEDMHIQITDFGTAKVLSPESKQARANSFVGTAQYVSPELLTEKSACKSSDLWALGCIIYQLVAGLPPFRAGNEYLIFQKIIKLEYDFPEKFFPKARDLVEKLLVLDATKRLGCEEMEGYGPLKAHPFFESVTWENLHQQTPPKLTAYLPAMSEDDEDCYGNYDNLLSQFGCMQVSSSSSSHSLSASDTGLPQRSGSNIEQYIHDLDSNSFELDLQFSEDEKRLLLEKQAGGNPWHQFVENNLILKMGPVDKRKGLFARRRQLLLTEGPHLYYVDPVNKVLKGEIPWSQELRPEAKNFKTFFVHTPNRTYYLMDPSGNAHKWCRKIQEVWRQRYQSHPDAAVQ

T3: PDK1 (Homo sapiens, UniProt O15530)
T3 construct: Full length PDK1 (residues 1-556); made in house; host or cells: 293 cells
T3 sequence (O15530 1-556): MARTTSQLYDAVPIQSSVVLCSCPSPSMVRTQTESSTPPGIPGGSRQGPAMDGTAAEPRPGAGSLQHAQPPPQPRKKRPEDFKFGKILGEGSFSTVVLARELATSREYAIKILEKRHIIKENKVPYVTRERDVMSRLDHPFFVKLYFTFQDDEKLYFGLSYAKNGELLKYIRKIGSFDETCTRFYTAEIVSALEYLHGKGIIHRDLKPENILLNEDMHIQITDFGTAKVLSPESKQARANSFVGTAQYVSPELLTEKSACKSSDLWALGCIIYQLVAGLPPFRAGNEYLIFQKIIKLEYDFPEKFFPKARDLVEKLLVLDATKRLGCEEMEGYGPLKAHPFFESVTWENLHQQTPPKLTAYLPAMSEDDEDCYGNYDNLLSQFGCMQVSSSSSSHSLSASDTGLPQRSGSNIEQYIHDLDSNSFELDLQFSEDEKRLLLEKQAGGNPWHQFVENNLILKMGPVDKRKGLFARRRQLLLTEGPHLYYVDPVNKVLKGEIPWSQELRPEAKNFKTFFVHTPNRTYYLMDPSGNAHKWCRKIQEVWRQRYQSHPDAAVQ

T4: GST-PDK1 (Homo sapiens, UniProt O15530)
T4 construct: Full length PDK1 (residues 1-556); made in house; host or cells: 293 cells
T4 sequence (O15530 1-556): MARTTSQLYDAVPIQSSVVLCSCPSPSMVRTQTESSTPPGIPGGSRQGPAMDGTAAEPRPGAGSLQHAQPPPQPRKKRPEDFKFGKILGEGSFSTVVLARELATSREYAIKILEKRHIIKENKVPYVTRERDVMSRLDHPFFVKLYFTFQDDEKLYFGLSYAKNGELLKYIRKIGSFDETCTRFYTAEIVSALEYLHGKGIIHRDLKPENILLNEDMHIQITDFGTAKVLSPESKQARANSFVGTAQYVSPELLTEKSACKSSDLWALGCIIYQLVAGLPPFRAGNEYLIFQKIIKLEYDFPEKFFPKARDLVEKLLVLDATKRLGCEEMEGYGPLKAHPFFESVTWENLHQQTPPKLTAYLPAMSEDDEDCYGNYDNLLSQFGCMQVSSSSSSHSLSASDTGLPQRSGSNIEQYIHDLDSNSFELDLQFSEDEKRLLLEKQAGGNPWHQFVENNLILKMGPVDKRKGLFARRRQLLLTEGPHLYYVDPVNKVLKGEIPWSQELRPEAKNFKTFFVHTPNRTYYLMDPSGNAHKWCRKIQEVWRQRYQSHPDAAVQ

B1: DN-SGK: SGK1 lacking the N-terminal 60 amino acids (protein)
chain: SQPQEPELMNANPSPPPSPSQQINLGPSSNPHAKPSDFHFLKVIGKGSFGKVLLARHKAEEVFYAVKVLQKKAILKKKEEKHIMSERNVLLKNVKHPFLVGLHFSFQTADKLYFVLDYINGGELFYHLQRERCFLEPRARFYAAEIASALGYLHSLNIVYRDLKPENILLDSQGHIVLTDFGLCKENIEHNSTTSTFCGTPEYLAPEVLHKQPYDRTVDWWCLGAVLYEMLYGLPPFYSRNTAEMYDNILNKPLQLKPNITNSARHLLEGLLQKDRTKRLGAKDDFMEIKSHVFFSLINWDDLINKKITPPFNPNVSGPNDLRHFDPEFTEEPVPNSIGKSPDSVLVTASVKEAAEAFLGFSYAPPTDSFL
modifications: left off: a dimerising Fc or GST
notes: SGK1 lacking the N-terminal 60 amino acids
B2: L155D: PDK1 mutant, Leu155 to Asp (protein)
chain: MARTTSQLYDAVPIQSSVVLCSCPSPSMVRTQTESSTPPGIPGGSRQGPAMDGTAAEPRPGAGSLQHAQPPPQPRKKRPEDFKFGKILGEGSFSTVVLARELATSREYAIKILEKRHIIKENKVPYVTRERDVMSRLDHPFFVKLYFTFQDDEKDYFGLSYAKNGELLKYIRKIGSFDETCTRFYTAEIVSALEYLHGKGIIHRDLKPENILLNEDMHIQITDFGTAKVLSPESKQARANSFVGTAQYVSPELLTEKSACKSSDLWALGCIIYQLVAGLPPFRAGNEYLIFQKIIKLEYDFPEKFFPKARDLVEKLLVLDATKRLGCEEMEGYGPLKAHPFFESVTWENLHQQTPPKLTAYLPAMSEDDEDCYGNYDNLLSQFGCMQVSSSSSSHSLSASDTGLPQRSGSNIEQYIHDLDSNSFELDLQFSEDEKRLLLEKQAGGNPWHQFVENNLILKMGPVDKRKGLFARRRQLLLTEGPHLYYVDPVNKVLKGEIPWSQELRPEAKNFKTFFVHTPNRTYYLMDPSGNAHKWCRKIQEVWRQRYQSHPDAAVQ
modifications: left off: small tags and cut ends
notes: PDK1 mutant, Leu155 to Asp

Key:
[1] = target: T1, PDK1-L155E; assay: Phosphorylation of AGC kinase substrates by PDK1 (32P, PhosphoImager); assay type: biochemical; conditions: PKB[S473D] rate by PDK1-wt = 100
Method: (§1) Phosphorylation of AGC kinase substrates by PDK1. The phosphorylation of PDK1 substrates was performed in a final volume of 20 μl in a buffer containing 50 mM Tris-HCl pH 7.5, 0.1% (by vol) 2-mercaptoethanol, 10 mM magnesium chloride, 100 μM [γ-^32P]ATP (˜1000 c.p.m./pmol), 0.5 μM microcystin-LR, 0.6 μM AGC kinase substrate and 0.6 to 30 nM wild type PDK1 or the indicated mutant of PDK1.
(§2) Relative phosphorylation of PDK1 substrates. PDK1 substrates were phosphorylated in vitro, subjected to SDS-PAGE, and radioactivity associated with the bands measured using a Phospho-Imager and known amounts of ATP as standard. The phosphorylation rate of PKB[S473D] in the presence of PtdIns (3,4,5)P3 was 2.6 mol/mol PDK1/min and was taken as the relative value of 100. Average values from a representative experiment performed in duplicates are shown.

[2] = target: T2, PDK1-wt; assay: as above; assay type: biochemical
Method: as §1, §2

[3] = target: T3, PDK1; assay: Glutathione-Sepharose pull-down of PDK1 with S6K1 or SGK1 from 293 cells; assay type: binding; conditions: GST-SGK1 forms; wild type Myc-PDK1
Method: FIG. 21. Interaction of S6K1 and SGK1 with PDK1. 293 cells were transiently transfected with DNA constructs expressing GST, GST-PDK1 wt or PDK1 L155E together with constructs expressing either wild type or the indicated mutants or truncations of HA tagged S6K1 (A) or wild type GST-ΔN-SGK1 or 422D mutant. 36 h post transfection the cells were lysed and GST fusion protein was purified by affinity chromatography on glutathione-Sepharose beads. Aliquots were electrophoresed on a 10% SDS-polyacrylamide gel, stained with Coomassie Blue, or immunoblotted using an anti-FLAG antibody to detect FLAG-S6K1 and anti-Myc antibody to detect Myc-PDK1. To establish that the wild type and mutant proteins were expressed at similar levels, […] of total lysate was electrophoresed on a 10% SDS-polyacrylamide gel and immunoblotted using the indicated antibodies. Duplicates of each condition are shown. Similar results were obtained in two different experiments.
Binding of PDK1 to SGK1 and S6K1. For the data presented in FIG. 22, 293 cells were cotransfected with 10 μg of the wild type or mutant PDK1 plasmid and 10 μg of either the wild type or mutant S6K1 or SGK1. […] The gels were either stained with Coomassie blue, or analysed by immunoblotting with either anti-Flag or anti-Myc antibodies (described below).

[4] = target: T4, GST-PDK1; assay: Thermal denaturation of PDK1 (TM50); assay type: biochemical; conditions: heated 2 min; no PIFtide
From the text: A further aspect of the invention provides the use of an interacting polypeptide as defined above, for example comprising the amino acid sequence Phe/Tyr-Xaa-Xaa-Phe/Tyr or an interacting compound of the invention in a method of stabilising a protein kinase having a hydrophobic pocket in the position equivalent to the hydrophobic pocket of Protein Kinase A (PKA) that is defined by residues including Lys76, Leu116, Val80 and/or Lys111 of full-length mouse PKA, wherein the protein kinase is exposed to the compound or polypeptide. Stabilisation may be measured by measuring the TM50 value. The TM50 value is the temperature at which heating for two minutes produces a 50% reduction in protein kinase activity (measured using any appropriate substrate) compared with the protein kinase activity before such heating, as described in Example 2. An increase in the TM50 value, for example by at least about 1, 2, 3, 4, 5, 6, 7, 8, 9, 10 or 15° C. indicates stabilisation.
FIG. 12. PDK1 is activated and stabilised through its interaction with PIFtide. (A) GST-PDK1 activity was measured in the presence of increasing concentrations of wild type (wt) PIFtide (closed circles) or a mutant D978A PIFtide (open circles) using the synthetic peptide substrate termed T308tide, as described in Material and Methods. The data was fitted to a hyperbola using the Kaleidagraph™ software. […]

Molecule	Relative phosphorylation of PDK1 substrates PDK1-L155E +PIFtide ([1]; with PIFtide)	Relative phosphorylation of PDK1 substrates PDK1-L155E — ([1]; without PIFtide)	phosphorylated at a lower rate than SGK1[T422D] [2] [fold]	Relative phosphorylation of PDK1 substrates PDK1-wt +PIFtide ([2]; with PIFtide, PKB[S473D] rate with PtdIns(3,4,5)P3 = 100)	Relative phosphorylation of PDK1 substrates PDK1-wt — ([2]; without PIFtide, PKB[S473D] rate with PtdIns(3,4,5)P3 = 100)	interaction with Myc-PDK1 [3]	TM50 value [4] [°C]
B1	2.4	3.3	10	3.8	8	did not interact	
B2							42
